For this assay, the target named is human myc-tagged essential myosin light chain (ELC) (human) (UniProt P08590). Description: co-IP; human myc-tagged ELC overexpressed in HEK293 cells, Myc-Trap magnetic beads, 1 mg lysate over night at 4 °C, immunoblot for endogenous kinases; basal or ionophore (ionomycin 1-5 µM, 4 mM CaCl2, 10 min) stimulation.
Chain of UniProt P08590 (P08590 whole entry): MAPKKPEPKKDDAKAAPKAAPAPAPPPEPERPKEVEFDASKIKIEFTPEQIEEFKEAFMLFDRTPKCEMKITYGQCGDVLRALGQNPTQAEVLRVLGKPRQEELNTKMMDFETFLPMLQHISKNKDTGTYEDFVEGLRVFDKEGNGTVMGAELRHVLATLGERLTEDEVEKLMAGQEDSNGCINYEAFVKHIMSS

B1: NIMA-related kinase 9 (NEK9), human, endogenous in HEK293 cells (enzyme)
chain: MSVLGEYERHCDSINSDFGSESGGCGDSSPGPSASQGPRAGGGAAEQEELHYIPIRVLGRGAFGEATLYRRTEDDSLVVWKEVDLTRLSEKERRDALNEIVILALLQHDNIIAYYNHFMDNTTLLIELEYCNGGNLYDKILRQKDKLFEEEMVVWYLFQIVSAVSCIHKAGILHRDIKTLNIFLTKANLIKLGDYGLAKKLNSEYSMAETLVGTPYYMSPELCQGVKYNFKSDIWAVGCVIFELLTLKRTFDATNPLNLCVKIVQGIRAMEVDSSQYSLELIQMVHSCLDQDPEQRPTADELLDRPLLRKRRREMEEKVTLLNAPTKRPRSSTVTEAPIAVVTSRTSEVYVWGGGKSTPQKLDVIKSGCSARQVCAGNTHFAVVTVEKELYTWVNMQGGTKLHGQLGHGDKASYRQPKHVEKLQGKAIRQVSCGDDFTVCVTDEGQLYAFGSDYYGCMGVDKVAGPEVLEPMQLNFFLSNPVEQVSCGDNHVVVLTRNKEVYSWGCGEYGRLGLDSEEDYYTPQKVDVPKALIIVAVQCGCDGTFLLTQSGKVLACGLNEFNKLGLNQCMSGIINHEAYHEVPYTTSFTLAKQLSFYKIRTIAPGKTHTAAIDERGRLLTFGCNKCGQLGVGNYKKRLGINLLGGPLGGKQVIRVSCGDEFTIAATDDNHIFAWGNGGNGRLAMTPTERPHGSDICTSWPRPIFGSLHHVPDLSCRGWHTILIVEKVLNSKTIRSNSSGLSIGTVFQSSSPGGGGGGGGGEEEDSQQESETPDPSGGFRGTMEADRGMEGLISPTEAMGNSNGASSSCPGWLRKELENAEFIPMPDSPSPLSAAFSESEKDTLPYEELQGLKVASEAPLEHKPQVEASSPRLNPAVTCAGKGTPLTPPACACSSLQVEVERLQGLVLKCLAEQQKLQQENLQIFTQLQKLNKKLEGGQQVGMHSKGTQTAKEEMEMDPKPDLDSDSWCLLGTDSCRPSL
B1: the averaged intensity of precipitated NEK9 normalized to actin of input, before doubling the ionophore concentration is 0.35 and the averaged intensity of precipitated NEK9 normalized to actin of input, doubled ionophore concentration stood at 1.01.
